Biological target: T1, tyrosine phosphatase SHP-1 (human, UniProt P29350 1-595)
T1 construct: mature
Assay: anti-PZR immunoprecipitation from pervanadate-treated cells, Western blot

T1 sequence (P29350 whole entry): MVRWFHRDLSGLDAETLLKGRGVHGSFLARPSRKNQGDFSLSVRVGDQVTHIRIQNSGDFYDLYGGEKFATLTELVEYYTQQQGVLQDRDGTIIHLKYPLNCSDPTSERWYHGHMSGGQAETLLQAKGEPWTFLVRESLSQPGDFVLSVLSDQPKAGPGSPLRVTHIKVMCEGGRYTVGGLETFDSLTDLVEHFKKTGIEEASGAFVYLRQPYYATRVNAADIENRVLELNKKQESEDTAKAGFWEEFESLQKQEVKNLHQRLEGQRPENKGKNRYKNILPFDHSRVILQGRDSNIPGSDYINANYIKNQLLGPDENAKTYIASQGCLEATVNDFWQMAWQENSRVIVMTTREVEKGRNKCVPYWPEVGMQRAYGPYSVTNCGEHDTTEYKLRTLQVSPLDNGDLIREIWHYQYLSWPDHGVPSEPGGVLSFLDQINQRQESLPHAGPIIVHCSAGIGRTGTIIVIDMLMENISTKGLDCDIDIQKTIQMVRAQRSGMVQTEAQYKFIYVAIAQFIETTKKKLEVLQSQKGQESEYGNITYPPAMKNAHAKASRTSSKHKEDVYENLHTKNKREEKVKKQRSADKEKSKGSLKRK

- binding result: no binding
B1: protein zero related (PZR), tyrosine-phosphorylated (receptor)
chain: SALEVYTPKEIFVANGTQGKLTCKFKSTSTTGGLTSVSWSFQPEGADTTVSFFHYSQGQVYLGNYPPFKDRISWAGDLDKKDASINIENMQFIHNGTYICDVKNPPDIVVQPGHIRLYVVEKENLPVFPVWVVVGIVTAVVLGLTLLISMILAVLYRRKNSKRDYTGCSTSESLSPVKQAPRKSPSDTEGLVKSLPSGSHQGPVIYAQLDHSGGHHSDKINKSESVVYADIRKN
modifications: phosphotyrosine at 241 and 263 (cells treated with pervanadate, or cells expressing catalytically inactive SHP-2); N-glycosylated
notes: It was assayed in Triton X-100 cell extracts or as protein purified from 293 cells; also called hPZR; p43
